# In patent publication US20180162928A1 (Janssen / Centocor, published 2018):
# Changes are numbered by the printed parent chain.
# B1: ISOP121FR5P1H8 (designed binder, not shown: small tags and cut ends)
# chain: LPAPKNLVVSRVTEDSARLSWTAPDAAFDSFVIYYSEQHFYGEAIVLTVPGSERSYDLTGLKPGTEYVVKIYGVKGGETSKPLSAIFTT
# notes: FN3 domain; E. coli lysate in the ELISA
# B2: ISOP121AR5P1A10 (designed binder, not shown: small tags and cut ends)
# chain: LPAPKNLVVSRVTEDSARLSWPDWSNSEYFDSFLIQYQESEKVGEAIVLTVPGSERSYDLTGLKPGTEYTVSIYGVYARHRLFVSNPLSAIFTT
# notes: as for B1
# B3: ISOP194AR9P1G7 (designed binder, not shown: small tags and cut ends)
# chain: B2 chain with P22G, W24D, S25F, A78T, H80A, R81V, L82V, V84T
# notes: as for B1
# B4: ISOP194HR9P1D11 (designed binder, not shown: small tags and cut ends)
# chain: LPAPKNLVVSRVTEDSARLSWTAPDAAFDSFSILYGELIGDGEAIVLTVPGSERSYDLTGLKPGTEYTVYIFGVKGGRYSRPLSAIFTT
# notes: as for B1
# B5: ISOP121HR5P1F2 (designed binder, not shown: small tags and cut ends)
# chain: B4 chain with S32T, L38T, I39Y, G40S, D41G, T68V, R78K, Y79W
# notes: as for B1
# B6: ISOP194HR9P1B2 (designed binder, not shown: small tags and cut ends)
# chain: B4 chain with T65S
# notes: as for B1
# B7: ISOP121FR5P1H9 (designed binder, not shown: small tags and cut ends)
# chain: B4 chain with L38T, I39A, G40P, D41I, T68V, F72Q, R78N, R81Q
# notes: as for B1
# B8: ISOP194BR9P1A5 (designed binder, not shown: small tags and cut ends)
# chain: LPAPKNLVVSRVTEDSARLSWFNADEEYFDSFLIQYQESEKVGEAIVLTVPGSERSYDLTGLKPGTEYTVSIYGVYQRGYHNWFSNPLSAIFTT
# notes: as for B1
# B9: ISOP194BR9P1C8 (designed binder, not shown: small tags and cut ends)
# chain: B8 chain with F22Y, N23F, D25G, E27L, Y28W
# notes: as for B1
# B10: ISOP121BR5P1D11 (designed binder, not shown: small tags and cut ends)
# chain: B8 chain with Q77V, G79A, Y80V, H81R, N82F, W83V, F84S
# notes: as for B1
# B11: ISOP121BR5P1B5 (designed binder, not shown: small tags and cut ends)
# chain: LPAPKNLVVSRVTEDSARLSWRKQEQYFDSFLIQYQESEKVGEAIVLTVPGSERSYDLTGLKPGTEYTVSIYGVYQRGYHNWFSNPLSAIFTT
# notes: as for B1
# B12: ISOP121BR5P1C6 (designed binder, not shown: small tags and cut ends)
# chain: B11 chain with Q76S, G78P, Y79K, H80A, N81E, W82F, F83T
# notes: as for B1
# B13: ISOP121BR5P1E7 (designed binder, not shown: small tags and cut ends)
# chain: B11 chain with Y75K, Q76K, R77W, G78P, Y79S, H80T, N81T, W82T, F83T
# notes: as for B1
# B14: ISOP121BR5P1A2 (designed binder, not shown: small tags and cut ends)
# chain: B11 chain with K23F, Q24S, E25Q, Q26E, Y27W, Q76A, Y79I, N81K, F83L
# notes: as for B1
# B15: ISOP121BR5P1C5 (designed binder, not shown: small tags and cut ends)
# chain: LPAPKNLVVSRVTEDSARLSWFRLRIVQTFDSFLIQYQESEKVGEAIVLTVPGSERSYDLTGLKPGTEYTVSIYGVITVVELLQQSNPLSAIFTT
# notes: as for B1
# B16: ISOP121BR5P1D7 (designed binder, not shown: small tags and cut ends)
# chain: LPAPKNLGCFSRYRRLSRLSWETPYPSLSNFDSFLIQYQESEKVGEAIVLTVPGSERSYDLTGLKPGTEYTVSIYGVLKLSAAWWPSNPLSAIFTT
# notes: as for B1
# B17: ISOP121GR5P1D2 (designed binder, not shown: small tags and cut ends)
# chain: LPAPKNLVVSRVTEDSARLSWTAPDAAFDSFHILYQERAQSGEAIGLVVPGSERSYDLTGLKPATEYSVQIFGVKGGKLSNPLWAWFTT
# notes: as for B1
# B18: ISOP121AR5P1H1 (designed binder, not shown: small tags and cut ends)
# chain: LPAPKNLVVSRVTEDSARLSWKQATKFVFDSFLIQYQESEKVGEAIVLTVPGSERSYDLTGLKPGTEYTVSIYGVPDWFVLESNPLSAIFTT
# notes: as for B1
# B19: ISOP121AR5P1E11 (designed binder, not shown: small tags and cut ends)
# chain: B18 chain with K22S, Q23V, A24Q, K26S, D77L, F79H, V80G, L81F, E82D
# notes: as for B1
# B20: ISOP121AR5P1C5 (designed binder, not shown: small tags and cut ends)
# chain: LPAPKNLVVSRVTEDSARLSWKRSDDEWFDSFLIQYQESEKVGEAIILTVPGSERSYDLTGLKPGTEYTVSIYGVYQRAALWFSNPLSAIFTT
# notes: as for B1
# B21: ISOP194AR9P1E3 (designed binder, not shown: small tags and cut ends)
# chain: B20 chain with I47V
# notes: as for B1
# B22: ISOP121BR5P1D10 (designed binder, not shown: small tags and cut ends)
# chain: LPAPKNLVVSRVTEDSARLSWGKKSHFFDSFLIQYQESEKVGEAIVLTVPGSERSYDLTGLKPGTEYTVSIYGVYTRGQCEWESNQLSAIFFTT
# notes: as for B1
# B23: ISOP121GR5P1D7 (designed binder, not shown: small tags and cut ends)
# chain: LPAPKNLVVSRVTEDSARLSWTAPDAAFDSFKIWYQERSIVGEAIFLLVPGSERSYDLTGLKPGTEYIVQIFGVKGGPYSNPLWAPFTT
# notes: as for B1
# B24: ISOP121AR5P1B8 (designed binder, not shown: small tags and cut ends)
# chain: LPAPKNLVISRVTEDSARLSWDKRTQFAFDSFLIQYQESEKVGEAIVLTVPGSERSYDLTGLKPGTEYTVSIYGVPTWSGRTQSNPLSAIFTT
# notes: as for B1
# B25: ISOP121BR5P1F10 (designed binder, not shown: small tags and cut ends)
# chain: LPAPKNLVVSRVTEDSARLSWPLNLEYFDSFLIQYQESEKVGEAIVLTVPGSERSYDLTGLKPGTEYTVSIYGVYGRYGGPFVSNPLSAIFTT
# notes: as for B1
# B26: ISOP121AR5P1H2 (designed binder, not shown: small tags and cut ends)
# chain: LPAPKNLVVSRVTEDSARLSWVIDEFIPLFDSFLIQYQESEKVGEAIVLTVPGSERSYDLTGLKPGTEYTVSIYGVLAKNIGISNPLSAIFTT
# notes: as for B1
# B27: ISOP121BR5P1G3 (designed binder, not shown: small tags and cut ends)
# chain: LPAPKNLVVSRVTEDSARLSWKQRTSFHFDSFLIQYQESEKVGEAIVLTVPGSERSYDLTGLKPGTEYTVSIYGVPFWQQWQPESNPLSAIFTT
# notes: as for B1
# B28: ISOP121BR5P1D6 (designed binder, not shown: small tags and cut ends)
# chain: B27 chain with R24G, P76Q, F77L, W78L, Q79A, Q80N, W81D, Q82I, P83I, E84S
# notes: as for B1
# B29: ISOP121GR5P1F10 (designed binder, not shown: small tags and cut ends)
# chain: LPAPKNLVVSRVTEDSARLSWTAPDAAFDSFFIDYVERATVGEAIALNVPGSKRSYALTGLKPGTEYFVKIRGVKGGLKSKPLWAWFTT
# notes: as for B1
# B30: ISOP121GR5P1G7 (designed binder, not shown: small tags and cut ends)
# chain: LPAPKNLVVSRVTEDSARLSWTAPDAAFDSFHIRYHEYDKNGEAIQLYVPGSERSYDLTGLKPGTEYGVYIHGVKGGGRSKPLWAHFTT
# notes: as for B1
# B31: ISOP194GR9P1E9 (designed binder, not shown: small tags and cut ends)
# chain: B30 chain with Y70F, H72W, G78L, R79K, H86W
# notes: as for B1
# B32: ISOP121AR5P1A8 (designed binder, not shown: small tags and cut ends)
# chain: LPAPKNLVVSRVTEDSARLSWGLEWAYQFFDSFLIQYQESEKVGEAIVLTVPGSERSYDLTGLKPGTEYTVSIYGVYLRAIEFYSNPLSAIFTT
# notes: as for B1
# B33: ISOP121GR5P1F7 (designed binder, not shown: small tags and cut ends)
# chain: LPAPKNLVVSRVTEDSARLSWTAPDAAFDSFGINYVERASEGEAIDLGVPGSERSYDLTGLKPGTEYFVKIFGVKGGIPSVPLWAWFTT
# notes: as for B1
# Molecular target: T1, recombinant biotinylated PD-L1 (rhPD-L1/Fc Chimera, R&D Systems 156-B7) (human, UniProt Q9NZQ7 19-238, biotinylated (sites not given))
# T1 construct: Bought Fc chimera; also called human PD-L1
# Experiment: ELISA, lysate on plate-bound antigen
# Experimental: Streptavidin-coated Maxisorp plates (Nunc catalog 436110) were blocked for 1 h in Starting Block T20 (Pierce) and then coated with biotinylated PD-L1 (using same antigen as in panning) or negative controls (an unrelated Fc-fused recombinant protein and human serum albumin) for 1 h. Plates were rinsed with TBST and diluted lysate was applied to plates for 1 h. Following additional rinses, wells were treated with HRP-conjugated anti-FN3 domain antibody (PAB25) for 1 h and then assayed with POD (Roche catalog 11582950001).
# T1 sequence (Q9NZQ7 19-238, change not shown): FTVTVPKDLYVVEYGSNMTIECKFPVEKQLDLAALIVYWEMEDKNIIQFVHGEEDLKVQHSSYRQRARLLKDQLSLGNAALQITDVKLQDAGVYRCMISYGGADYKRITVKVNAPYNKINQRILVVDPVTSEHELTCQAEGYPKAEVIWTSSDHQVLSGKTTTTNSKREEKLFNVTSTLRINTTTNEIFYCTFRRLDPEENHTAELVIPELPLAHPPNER
row,ELISA PD-L1 Fc (RSU),Binder
1,431000 RSU,B1
2,789000 RSU,B2
3,1.59e+07 RSU,B3
4,6.62e+06 RSU,B4
5,907000 RSU,B5
6,5.66e+06 RSU,B6
7,1.2e+06 RSU,B7
8,3.18e+06 RSU,B8
9,6.11e+06 RSU,B9
10,2.44e+06 RSU,B10
11,1.48e+06 RSU,B11
12,13400 RSU,B12
13,412000 RSU,B13
14,743000 RSU,B14
15,11700 RSU,B15
16,12800 RSU,B16
17,513000 RSU,B17

row,ELISA PD-L1 Fc (RSU),Binder
1,1.48e+06 RSU,B18
2,1.84e+06 RSU,B19
3,732000 RSU,B20
4,4.57e+06 RSU,B21
5,1.54e+06 RSU,B22
6,792000 RSU,B23
7,592000 RSU,B24
8,1.42e+06 RSU,B25
9,927000 RSU,B26
10,771000 RSU,B27
11,2.44e+06 RSU,B28
12,577000 RSU,B29
13,368000 RSU,B30
14,2.82e+06 RSU,B31
15,516000 RSU,B32
16,697000 RSU,B33

# Molecular target: human serum albumin (human) (UniProt P02768)
# Experiment: ELISA, lysate on plate-bound antigen
# Chain of human serum albumin (human) (P02768 25-609 limits assumed): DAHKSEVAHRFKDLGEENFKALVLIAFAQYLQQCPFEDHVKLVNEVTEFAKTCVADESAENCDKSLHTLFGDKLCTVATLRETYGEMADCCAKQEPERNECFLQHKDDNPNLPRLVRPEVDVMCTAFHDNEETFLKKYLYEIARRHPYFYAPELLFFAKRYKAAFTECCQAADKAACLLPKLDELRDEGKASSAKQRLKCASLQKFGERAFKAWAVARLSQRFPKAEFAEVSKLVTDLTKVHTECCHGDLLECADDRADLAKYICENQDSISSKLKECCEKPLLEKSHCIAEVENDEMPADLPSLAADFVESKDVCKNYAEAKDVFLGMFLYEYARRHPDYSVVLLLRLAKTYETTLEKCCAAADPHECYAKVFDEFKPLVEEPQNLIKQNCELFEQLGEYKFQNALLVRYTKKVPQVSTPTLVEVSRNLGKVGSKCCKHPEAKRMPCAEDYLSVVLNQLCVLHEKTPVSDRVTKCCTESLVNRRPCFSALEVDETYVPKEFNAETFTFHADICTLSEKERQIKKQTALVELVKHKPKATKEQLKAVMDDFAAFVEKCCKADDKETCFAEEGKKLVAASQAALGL
row,ELISA HSA (RSU),Binder
1,640 RSU,B1
2,560 RSU,B2
3,560 RSU,B3
4,1680 RSU,B4
5,640 RSU,B5
6,1840 RSU,B6
7,880 RSU,B7
8,1280 RSU,B8
9,1280 RSU,B9
10,1120 RSU,B10
11,400 RSU,B11
12,720 RSU,B12
13,640 RSU,B13
14,800 RSU,B14
15,720 RSU,B15
16,720 RSU,B16
17,640 RSU,B17

row,ELISA HSA (RSU),Binder
1,880 RSU,B18
2,720 RSU,B19
3,560 RSU,B20
4,800 RSU,B21
5,880 RSU,B22
6,720 RSU,B23
7,560 RSU,B24
8,720 RSU,B25
9,1120 RSU,B26
10,640 RSU,B27
11,880 RSU,B28
12,640 RSU,B29
13,800 RSU,B30
14,1200 RSU,B31
15,1040 RSU,B32
16,720 RSU,B33

# Molecular target: unrelated Fc-fused recombinant protein
# Experiment: ELISA, lysate on plate-bound antigen
row,ELISA Fc Control (RSU),Binder
1,560 RSU,B1
2,1120 RSU,B2
3,1280 RSU,B3
4,480 RSU,B4
5,480 RSU,B5
6,400 RSU,B6
7,720 RSU,B7
8,800 RSU,B8
9,640 RSU,B9
10,800 RSU,B10
11,720 RSU,B11
12,720 RSU,B12
13,800 RSU,B13
14,720 RSU,B14
15,400 RSU,B15
16,800 RSU,B16
17,720 RSU,B17

row,ELISA Fc Control (RSU),Binder
1,880 RSU,B18
2,720 RSU,B19
3,640 RSU,B20
4,1120 RSU,B21
5,480 RSU,B22
6,720 RSU,B23
7,640 RSU,B24
8,560 RSU,B25
9,880 RSU,B26
10,560 RSU,B27
11,560 RSU,B28
12,640 RSU,B29
13,800 RSU,B30
14,720 RSU,B31
15,560 RSU,B32
16,640 RSU,B33
